Experimental data: patent publication US20260242478A1 (published 2026)
Where no end group is shown, it is not given here.

B1: Phage-124 (peptide)
peptide: MDWCPRPLWDMCFF
notes: tested as crude clonal phage supernatant
B2: Phage-142 (peptide)
peptide: MDWCPVILWDFCFN
notes: tested as crude clonal phage supernatant; also called position 11 is F in the position column
B3: Phage-152 (peptide, not shown: large carriers)
peptide: MDWCPKYLWDKCFH
notes: Clonal phage of the Peptide-9 library
B4: Phage-127 (peptide)
peptide: MDWCPRALWNECFA
notes: as for B1
B5: Phage-144 (peptide)
peptide: MDWCPRHLWYACFN
notes: as for B1
B6: Phage-130 (peptide)
peptide: MDWCPRYLWDACFF
notes: as for B1
B7: Phage-131 (peptide)
peptide: MDWCPRSLWIYCFN
notes: as for B1
B8: Phage-166 (peptide, not shown: large carriers)
peptide: MDWCPRHLWDLCFA
modifications: cysteine pairing not given here; also: displayed as fusion to phage pIII, linker and pIII sequence not given here
notes: as for B3
B9: Phage-161 (peptide, not shown: large carriers)
peptide: MDWCPRHLWDQCFA
notes: as for B3
B10: Phage-153 (peptide, not shown: large carriers)
peptide: MDWCPRHLWDLCFF
notes: as for B3
B11: Phage-126 (peptide)
peptide: MDWCPRFLWNECFN
notes: as for B1
B12: Phage-136 (peptide)
peptide: MHWCPIYLWDECFN
notes: as for B1
B13: Phage-145 (peptide, not shown: large carriers)
peptide: MDWCPKHLWIECFA
modifications: cysteine pairing not given here; also: fused to phage pIII protein, pIII and linker sequence not given here
notes: as for B3
B14: Phage-125 (peptide)
peptide: MDWCPVSLWHVCFY
notes: as for B1
B15: Phage-80, clonal phage peptide MDWCPMYLWNECFS (peptide)
peptide: MDWCPMYLWNECFS
notes: tested as crude clonal phage supernatant; not shown: pIII of the bacteriophage to which the peptide is fused
B16: Phage-137 (peptide)
peptide: MDWCPRYLWHECFH
notes: as for B1
B17: Phage-123 (peptide)
peptide: MDWCPIHLWNECFA
notes: as for B1
B18: Phage-150 (peptide, not shown: large carriers)
peptide: MDWCPRHLWNVCFS
notes: as for B3
B19: Phage-81, clonal phage peptide … (peptide)
peptide: MDWCPRFLWSVCFN
notes: as for B15
B20: Phage-132 (peptide)
peptide: MDWCPTYLWFECFN
notes: as for B1
B21: Phage-147 (peptide, not shown: large carriers)
peptide: MHWCPRDLWVVCFN
modifications: cysteine pairing not given here; also: fused to phage pIII protein, pIII and linker sequence not given here
notes: as for B3
B22: Phage-154 (peptide, not shown: large carriers)
peptide: MDWCPRDLWNVCFA
notes: as for B3
B23: Phage-149 (peptide, not shown: large carriers)
peptide: MDWCPRDLWAVCFA
notes: as for B3
B24: Phage-169 (peptide, not shown: large carriers)
peptide: MDWCPRDLWNVCFN
modifications: cysteine pairing not given here; also: displayed as fusion to phage pIII, linker and pIII sequence not given here
notes: as for B3
B25: Phage-135 (peptide)
peptide: MDWCPKFLWHECFS
notes: tested as crude clonal phage supernatant; also called position 7 is F in the position column
B26: Phage-129 (peptide)
peptide: MDWCPSYLWTVCFA
notes: as for B1
B27: Phage-141 (peptide)
peptide: MDWCPRSLWNVCFF
notes: as for B1
B28: Phage-138 (peptide)
peptide: MDWCPTNLWHECFA
notes: as for B1
B29: Phage-139 (peptide)
peptide: MDWCPRDLWDVCFA
notes: as for B1
B30: Phage-134 (peptide)
peptide: MDWCPSYLWHECFA
notes: as for B1
B31: Phage-121 (peptide)
peptide: MDWCPRDLWHVCFF
notes: as for B1
B32: Phage-118 (peptide)
peptide: MDWCPRHLWDECFF
notes: as for B1
B33: Phage-133 (peptide)
peptide: MDWCPRFLWDECFF
notes: as for B25
B34: Phage-148 (peptide, not shown: large carriers)
peptide: MHWCPEYLWNECFA
modifications: cysteine pairing not given here; also: displayed as fusion to phage pIII, linker and pIII sequence not given here
notes: as for B3
B35: Phage-119 (peptide)
peptide: MDWCPRYLWHMCYS
notes: as for B1
B36: Phage-151 (peptide, not shown: large carriers)
peptide: MDFCPISLWHECFF
notes: as for B3
B37: Phage-143 (peptide)
peptide: LDWCPLNLWDLCYF
notes: as for B1
B38: Phage-122 (peptide)
peptide: MDWCPRDLWDQCYA
notes: as for B1
B39: Phage-120 (peptide)
peptide: MDWCPRDLWHACFS
notes: as for B1
B40: Phage-128 (peptide)
peptide: MDWCPRDLWIECFF
notes: as for B1
B41: Phage-140 (peptide)
peptide: MDWCPMDLWDVCFN
notes: as for B1
B42: Phage-146 (peptide, not shown: large carriers)
peptide: MDWCPRHLWSECFY
modifications: cysteine pairing not given here; also: fused to phage pIII protein, pIII and linker sequence not given here
notes: as for B3

Tests used:
[1] = molecular target: T1, Anti-CD28 scFv (VH - linker 1 - VL) (biotinylated (site not stated)); assay: clonal phage ELISA on captured anti-CD28 scFv, wells pre-incubated with soluble CD28 as competitor;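 note: crude phage supernatants used, bound phage read out via HRP-linked anti-M13 antibody, with comparison wells given blocking buffer lacking soluble CD28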
[2] = molecular target: T1, Anti-CD28 scFv (VH - linker 1 - VL); assay: clonal phage ELISA on biotinylated anti-CD28 scFv captured on neutravidin plates, anti-M13 HRP detection;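 note: crude phage supernatants were used, and before phage were added the wells were pretreated with blocking buffer, either alone or with soluble CD28 protein, without washing in between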
Description: Clonal phage were harvested as crude supernatants and screened via standard enzyme linked immunosorbent assays (ELISAs). […] Prior to the addition of clonal phage, wells were incubated with blocking buffer and CD28 soluble protein or blocking buffer alone. Without washing or aspirating, clonal phage supernatants were then added to the wells and incubated for a short time. Wells were then washed followed by detection of bound phage using a horse radish peroxidase conjugated anti-M13 antibody.

[3] = molecular target: T2, anti-CD28 scFv (VH - linker 1 - VL) (biotinylated (site not stated)); assay: phage ELISA as above, wells pre-incubated with soluble CD28 (competitor);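 note: ELISA of crude clonal phage supernatants added to wells pre-treated with soluble CD28 in blocking buffer, bound phage read out with HRP-conjugated anti-M13 antibody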
[4] = molecular target: T2, anti-CD28 scFv (VH - linker 1 - VL); assay: phage ELISA; biotinylated anti-CD28 scFv on neutravidin plate, clonal phage supernatant, anti-M13-HRP detection;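 note: before phage addition, wells were pretreated with soluble CD28 protein in blocking buffer, or with blocking buffer only as the comparison, then phage were added without washing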
[5] = molecular target: anti-CD28 scFv (VH - linker 1 - VL) (biotinylated (site not given)); assay: phage ELISA as before, wells pre-incubated with soluble CD28 (competitor)
Chain of anti-CD28 scFv (VH - linker 1 - VL) (biotinylated (site not given)) (scFv, as listed by the source): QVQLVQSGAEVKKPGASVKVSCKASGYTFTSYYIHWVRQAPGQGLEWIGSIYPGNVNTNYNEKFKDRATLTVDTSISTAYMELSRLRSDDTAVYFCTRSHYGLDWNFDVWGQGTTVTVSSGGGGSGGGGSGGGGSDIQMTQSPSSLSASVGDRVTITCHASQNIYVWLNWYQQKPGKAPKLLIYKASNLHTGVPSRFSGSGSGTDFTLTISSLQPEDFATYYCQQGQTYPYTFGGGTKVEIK

T1 sequence (scFv, as listed by the source): as above
T2 sequence (scFv, as listed by the source): as above

Row | Binder | CD28 scFv signal in presence of CD28 [1] | CD28 scFv signal [2] | CD28 scFv signal in presence of CD28 [3] | CD28 scFv signal [4] | CD28 scFv signal in presence of CD28 [5]
1 | B1 | 0.138 | 2.4 |  |  | 
2 | B2 | 0.173 | 2.03 |  |  | 
3 | B3 |  |  | 0.109 | 1.54 | 
4 | B4 | 0.375 | 2.38 |  |  | 
5 | B5 | 0.159 | 2.01 |  |  | 
6 | B6 | 0.168 | 2.34 |  |  | 
7 | B7 | 0.401 | 2.34 |  |  | 
8 | B8 |  |  | 0.096 | 0.925 | 
9 | B9 |  |  | 0.144 | 1.12 | 
10 | B10 |  |  | 0.182 | 1.4 | 
11 | B11 | 0.503 | 2.4 |  |  | 
12 | B12 | 0.193 | 2.23 |  |  | 
13 | B13 |  |  | 0.132 | 1.98 | 
14 | B14 | 0.409 | 2.4 |  |  | 
15 | B15 |  |  |  |  | 0.411
16 | B16 | 0.308 | 2.19 |  |  | 
17 | B17 | 0.203 | 2.4 |  |  | 
18 | B18 |  |  | 0.176 | 1.61 | 
19 | B19 |  |  |  |  | 1.15
20 | B20 | 0.224 | 2.33 |  |  | 
21 | B21 |  |  | 0.112 | 1.83 | 

Row | Binder | CD28 scFv signal in presence of CD28 [1] | CD28 scFv signal [2] | CD28 scFv signal in presence of CD28 [3] | CD28 scFv signal [4] | CD28 scFv signal in presence of CD28 [5]
22 | B22 |  |  | 0.145 | 1.38 | 
23 | B23 |  |  | 0.089 | 1.67 | 
24 | B24 |  |  | 0.108 | 0.74 | 
25 | B25 | 0.142 | 2.28 |  |  | 
26 | B26 | 0.096 | 2.34 |  |  | 
27 | B27 | 0.356 | 2.13 |  |  | 
28 | B28 | 0.096 | 2.16 |  |  | 
29 | B29 | 0.28 | 2.16 |  |  | 
30 | B30 | 0.198 | 2.28 |  |  | 
31 | B31 | 0.268 | 2.41 |  |  | 
32 | B32 | 0.663 | 2.46 |  |  | 
33 | B33 | 0.246 | 2.28 |  |  | 
34 | B34 |  |  | 0.092 | 1.69 | 
35 | B35 | 1.17 | 2.42 |  |  | 
36 | B36 |  |  | 0.129 | 1.58 | 
37 | B37 | 0.095 | 2.03 |  |  | 
38 | B38 | 0.201 | 2.41 |  |  | 
39 | B39 | 0.173 | 2.41 |  |  | 
40 | B40 | 0.137 | 2.37 |  |  | 
41 | B41 | 0.263 | 2.15 |  |  | 
42 | B42 |  |  | 0.199 | 1.92 | 
